Test results as given in paper PMC6863806.

Molecular target: ROP18 in total lysate antigen of T. gondii RH (RH Ag) (Toxoplasma gondii RH strain) (UniProt Q2PAY2)
Experiment: direct ELAA (plate-based aptamer binding)
Conditions: 50 ug/mL RH Ag coated; aptamer 50-500 nM; Direct ELAA: antigen coated in carbonate pH 9.6 overnight 4 C; 1% BSA block; biotin-aptamer in PBS, 0.5% glucose, 0.1% albumin, 1 M MgCl2 (so in the source), 1 h …

Sequence of UniProt Q2PAY2 (Q2PAY2 whole entry): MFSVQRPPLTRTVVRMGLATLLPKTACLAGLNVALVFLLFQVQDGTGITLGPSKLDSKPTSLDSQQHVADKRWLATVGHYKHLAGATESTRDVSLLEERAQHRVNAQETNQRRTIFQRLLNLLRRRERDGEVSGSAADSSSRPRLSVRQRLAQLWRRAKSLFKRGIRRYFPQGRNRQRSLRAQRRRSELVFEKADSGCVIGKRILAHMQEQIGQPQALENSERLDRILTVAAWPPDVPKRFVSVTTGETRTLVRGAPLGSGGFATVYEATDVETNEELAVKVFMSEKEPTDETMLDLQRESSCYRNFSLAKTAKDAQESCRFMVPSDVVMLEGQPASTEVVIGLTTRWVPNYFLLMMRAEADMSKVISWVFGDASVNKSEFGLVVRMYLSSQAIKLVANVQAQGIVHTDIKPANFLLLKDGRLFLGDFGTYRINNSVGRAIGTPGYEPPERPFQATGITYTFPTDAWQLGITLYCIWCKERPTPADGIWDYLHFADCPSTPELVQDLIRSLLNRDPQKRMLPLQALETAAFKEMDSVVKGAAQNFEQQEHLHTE

Row | Sequence | Kd
1 | CGCACCGATCCGGTGTTAATCTCGACGTCCCTTAAGTTTG [AP002] | 97.7 nM
2 | TCCTGGCAGCGCTTTTGCTTGTTTGCTCTCGTACCTGTCC [AP001] | 62.7 nM
